Experimental data reported in patent publication US20210380703A1 (RIGEL PHARMACEUTICALS, published 2021).
Substitutions are numbered along the chain they refer to.

B1: 368_H10 (antibody, V domains shown)
VH: EVQLLESGGGLVQPGGSLRLSCAASGFTFSSYSMNWVRQAPGKGLEWVSSINYNSGYKGYADSVKGRFTISRDNSKNTLYLQMNSLRAEDTAVYYCARSATWHDTHLDYWGQGTLVTVSS
VL: DIQMTQSPSSLSASVGDRVTITCRASQSIVSYVNWYQQKPGKAPKLVIYAVTSLASGVPSRFSGSGSGTDFTLTISSLQPEDFATYYCQQSYETPLTFGGGTKVEIK
notes: VH and VL only
B2: 376_H08 (antibody, V domains shown)
VH: B1 VH with S30D, S33G, S50N, S55G
VL: B1 VL with V30L, S31T, V33L, V47L, V51A, L54R, A55H, Y92D, E93S, T94L
notes: VH and VL only
B3: 374_A05 (antibody, V domains shown)
VH: B1 VH with S31D, S33G, S49A, S50N, S55G, S99G
VL: B1 VL with S31R, V33L, V51A, T94L
B4: 366_B12 (antibody, V domains shown)
VH: B1 VH with S49A, S50G, T101N, H106A
VL: B1 VL with V30L, S31T, V47L, V51A, L54R, E93D, T94N
B5: 374_C03 (antibody, V domains shown)
VH: B1 VH with S30D, S50G, K58T, G59S, T101N, H106A
VL: B1 VL with V30L, S31T, V33L, V47L, V51A, L54R, E93D, T94S
B6: 374_D08 (antibody, V domains shown)
VH: B1 VH with S30D, S33G, S50G, K58T, T101N
VL: B1 VL with V30L, S31T, V33L, V47L, V51A, L54R, A55H, T94S
B7: 373_C02 (antibody, V domains shown)
VH: B1 VH with S30D, S31D, S50G, T101N, H106A
VL: B1 VL with V30L, V47L, V51A, L54R, E93N
B8: 374_C06 (antibody, V domains shown)
VH: B1 VH with S30D, S31D, T101N, H106A
VL: B1 VL with V30L, S31T, V47L, V51A, L54R, E93N, T94S
B9: 373_D10 (antibody, V domains shown)
VH: B1 VH with S30D, S50N, T101N, H106A
VL: B1 VL with V30L, V47L, V51A, L54R, E93D, T94L
B10: 367_H11 (antibody, V domains shown)
VH: B1 VH with S33G, S49A, S50G, S55G, T101N, H106A
VL: B1 VL with V30I, V51A, L54R, E93N, T94S
B11: 373_A10 (antibody, V domains shown)
VH: B1 VH with S33G, S50G, K58T, G59S, T101N, H106A
VL: B1 VL with V30L, V33L, V51A, L54R, E93D, T94L
B12: 365_A12 (antibody, V domains shown)
VH: B1 VH with S33G, N35H, S49A, S50G, S55G, K58T, G59S, R98K, T101N
VL: B1 VL with V30L, S31T, V47L, V51A, L54R, A55H, T94N
B13: 365_E02 (antibody, V domains shown)
VH: B1 VH with S49A, S50N, S55G, K58T, G59S, R98K
VL: B1 VL with V30I, V33L, V47L, V51A, L54R, T94N
B14: 368_D10 (antibody, V domains shown)
VH: B1 VH with S30D, S33G, S49A, S50G, K58T, G59S, H106A
VL: B1 VL with V30L, V33L, V51A, L54R, E93D, T94S
B15: 365_E05 (antibody, V domains shown)
VH: B1 VH with S33G, N35H, S49A, S50G, S55G, K58T, G59S, T101N, H106A
VL: B1 VL with V47L, V51A, E93D, T94N
B16: 374_B06 (antibody, V domains shown)
VH: B1 VH with S30D, S49A, S50G, T101N
VL: B1 VL with V30L, S31T, V47L, V51A, L54R, E93D
B17: 369_D02 (antibody, V domains shown)
VH: B1 VH with S31D, S50N, K58T, T101N, H106A
VL: B1 VL with V30L, V33L, L54R, E93D
B18: 369_G01 (antibody, V domains shown)
VH: B1 VH with S50N, G59S, T101N, H106A
VL: B1 VL with V30L, V47L, V51A, L54R, E93S, T94S
B19: 370_D04 (antibody, V domains shown)
VH: B1 VH with S30D, S49A, S50N, T101N, H106A
VL: B1 VL with V30L, S31T, V33L, V51A, L54R, E93D, T94N
B20: 370_E09 (antibody, V domains shown)
VH: B1 VH with S30D, S31D, Y32S, N35H, S50N, S55G, K58T, R98K, T101N, H106A
VL: B1 VL with V30L, V51A, L54R, T94L
B21: 370_A12 (antibody, V domains shown)
VH: B1 VH with S33G, S49A, S50G, S55G, K58T, G59S, T101N, H106A
VL: B1 VL with V30L, S31T, V33L, V47L, V51A, E93D, T94S
B22: 370_C03 (antibody, V domains shown)
VH: B1 VH with S33G, S49A, S50G, S55G, T101N, H106A
VL: B1 VL with V30L, S31T, V33L, V47L, A50Y, S53N, L54R, A55Q, E93S, T94S
B23: 373_D04 (antibody, V domains shown)
VH: B1 VH with S30D, S50G, T101N, H106A
VL: B1 VL with V30L, V33L, V47L, V51A, L54R, A55H, E93D, T94S
B24: 369_F01 (antibody, V domains shown)
VH: B1 VH with S33G, S50G, S55G, G59S, T101N, H106A
VL: B1 VL with V30L, S31T, V47L, V51A, L54R, T94L
B25: 369_H06 (antibody, V domains shown)
VH: B1 VH with S33G, S49A, S50N, S55G, G59S, T101N, H106A
VL: B1 VL with V47L, V51A, L54R, E93D
B26: 365_E07 (antibody, V domains shown)
VH: B1 VH with S30D, S33G, N35H, S50G, K58T, G59S, R98K, T101N
VL: B1 VL with V30L, V33L, V47L, V51A, L54R, E93D, T94N
B27: 372_F08 (antibody, V domains shown)
VH: B1 VH with S31D, S50N, K58T, T101N, H106A
VL: B1 VL with V30L, S31T, V51A, L54R, E93D
B28: 374_C10 (antibody, V domains shown)
VH: B1 VH with S55G, S99G
VL: B1 VL with S31T, V33L, V47L, V51A, E93N
B29: 374_G05 (antibody, V domains shown)
VH: B1 VH with S50N, S99G
VL: B1 VL with V30I, V33L, V47L, V51A, L54R, E93D, T94L
B30: 368_F03 (antibody, V domains shown)
VH: B1 VH with S30D, S49A, S50G, K58T, R98K, T101N, H106A
VL: B1 VL with V30I, V33L, V51A, L54R, A55H, E93D, T94S
B31: 367_H06 (antibody, V domains shown)
VH: B1 VH with S33G, S50N, S55G, K58T, T101N
VL: B1 VL with V30I, S31T, V33L, V47L, V51A, L54R, E93D

Biological target: T1, human ACVR2A (human, UniProt P27037 20-135, limits assumed)
T1 construct: also called activin receptor, type II A
T1 sequence (P27037 20-135 limits assumed): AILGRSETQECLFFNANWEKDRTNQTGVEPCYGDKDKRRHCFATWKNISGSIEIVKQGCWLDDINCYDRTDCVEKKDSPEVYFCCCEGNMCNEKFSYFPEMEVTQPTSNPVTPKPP
Assay: ELISA
Procedure, shortened: (§1)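 Monoclonal antibodies were first applied to human or mouse ACVR2A, alongside biotinylated goat anti-human kappa light chain (positive control) and human Fc (negative control); binding was then determined by ELISA.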
Wherever optical density is given: test concentration or dose not given here.

| optical density | Binder |
| --- | --- |
| 2.28 OD | B1 |
| 3.31 OD | B2 |

Biological target: mouse ACVR2A (mouse, UniProt P27038 20-135, limits assumed)
Sequence (P27038 20-135 limits assumed): as the sequence (P27037 20-135 limits assumed) above, with K20R, V73I counted along it
Assay: ELISA
Procedure, shortened: as §1

| optical density | Binder |
| --- | --- |
| 2.16 OD | B1 |
| 3.28 OD | B2 |

Biological target: ACVR2A on primary human myotubes (human, UniProt P27037 20-513)
Sequence (P27037 20-513): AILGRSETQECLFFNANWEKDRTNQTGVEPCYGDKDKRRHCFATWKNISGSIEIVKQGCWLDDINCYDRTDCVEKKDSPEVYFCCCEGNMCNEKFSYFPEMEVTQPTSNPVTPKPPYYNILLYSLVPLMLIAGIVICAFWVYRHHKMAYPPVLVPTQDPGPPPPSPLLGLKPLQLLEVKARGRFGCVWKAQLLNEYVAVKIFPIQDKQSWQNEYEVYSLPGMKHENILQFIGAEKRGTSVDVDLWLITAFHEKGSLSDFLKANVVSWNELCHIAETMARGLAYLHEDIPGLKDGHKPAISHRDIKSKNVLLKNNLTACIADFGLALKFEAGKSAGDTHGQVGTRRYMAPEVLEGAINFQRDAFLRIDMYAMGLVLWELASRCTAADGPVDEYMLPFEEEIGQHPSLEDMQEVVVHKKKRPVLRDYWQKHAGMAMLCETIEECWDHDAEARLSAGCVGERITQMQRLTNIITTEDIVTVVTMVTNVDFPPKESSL
Assay: cell-based or functional assay

| Phospho-SMAD3 Human Skeletal Muscle GDF8 | Binder |
| --- | --- |
| 0.0081 | B3 |
| 0.0392 | B4 |
| 0.0094 | B5 |
| 0.23 | B6 |
| 0.0083 | B7 |
| 0.0138 | B8 |
| 0.006 | B9 |
| 0.0703 | B10 |
| 0.0111 | B11 |
| 0.903 | B12 |
| 0.341 | B13 |
| 0.0601 | B14 |
| 0.244 | B15 |
| 0.0407 | B16 |
| 0.0135 | B17 |
| 0.0116 | B18 |
| 0.0074 | B19 |
| 0.0093 | B20 |
| 0.0632 | B21 |
| 0.0029 | B22 |
| 0.0078 | B23 |
| 0.0317 | B24 |
| 0.0068 | B25 |
| 0.518 | B26 |
| 0.023 | B27 |
| 0.0582 | B28 |
| 0.0132 | B29 |
| 0.812 | B30 |
| 0.108 | B31 |

Biological target: T2, biotinylated goat anti-human kappa light chain
T2 construct: Positive control of the ELISA
Assay: ELISA, positive control; further: test concentration or dose not given here
Procedure, shortened: as §1

| optical density | Binder |
| --- | --- |
| 3.36 OD | B1 |
| 3.53 OD | B2 |
